This note sets out measurements from publication PMC11535040, “Requirement of Nek2a and cyclin A2 for Wapl-dependent removal of cohesin from prophase chromatin” (The EMBO Journal, 2024).

Assay [1] concerns the target T1, Flag-tagged Pds5b (wild type) from cells co-expressing Nek2aΔMR (human, UniProt Q9NTI5 1-1447, phosphoserine at 1177, 1182 and 1209 (by Nek2a)).
T1 construct: Pds5b, human; insert by PCR on human cDNA; their state in this preparation was not measured; source: Hek293T co-expressing eGFP-Nek2aΔMR, taxol-arrested
T1 sequence (looked up): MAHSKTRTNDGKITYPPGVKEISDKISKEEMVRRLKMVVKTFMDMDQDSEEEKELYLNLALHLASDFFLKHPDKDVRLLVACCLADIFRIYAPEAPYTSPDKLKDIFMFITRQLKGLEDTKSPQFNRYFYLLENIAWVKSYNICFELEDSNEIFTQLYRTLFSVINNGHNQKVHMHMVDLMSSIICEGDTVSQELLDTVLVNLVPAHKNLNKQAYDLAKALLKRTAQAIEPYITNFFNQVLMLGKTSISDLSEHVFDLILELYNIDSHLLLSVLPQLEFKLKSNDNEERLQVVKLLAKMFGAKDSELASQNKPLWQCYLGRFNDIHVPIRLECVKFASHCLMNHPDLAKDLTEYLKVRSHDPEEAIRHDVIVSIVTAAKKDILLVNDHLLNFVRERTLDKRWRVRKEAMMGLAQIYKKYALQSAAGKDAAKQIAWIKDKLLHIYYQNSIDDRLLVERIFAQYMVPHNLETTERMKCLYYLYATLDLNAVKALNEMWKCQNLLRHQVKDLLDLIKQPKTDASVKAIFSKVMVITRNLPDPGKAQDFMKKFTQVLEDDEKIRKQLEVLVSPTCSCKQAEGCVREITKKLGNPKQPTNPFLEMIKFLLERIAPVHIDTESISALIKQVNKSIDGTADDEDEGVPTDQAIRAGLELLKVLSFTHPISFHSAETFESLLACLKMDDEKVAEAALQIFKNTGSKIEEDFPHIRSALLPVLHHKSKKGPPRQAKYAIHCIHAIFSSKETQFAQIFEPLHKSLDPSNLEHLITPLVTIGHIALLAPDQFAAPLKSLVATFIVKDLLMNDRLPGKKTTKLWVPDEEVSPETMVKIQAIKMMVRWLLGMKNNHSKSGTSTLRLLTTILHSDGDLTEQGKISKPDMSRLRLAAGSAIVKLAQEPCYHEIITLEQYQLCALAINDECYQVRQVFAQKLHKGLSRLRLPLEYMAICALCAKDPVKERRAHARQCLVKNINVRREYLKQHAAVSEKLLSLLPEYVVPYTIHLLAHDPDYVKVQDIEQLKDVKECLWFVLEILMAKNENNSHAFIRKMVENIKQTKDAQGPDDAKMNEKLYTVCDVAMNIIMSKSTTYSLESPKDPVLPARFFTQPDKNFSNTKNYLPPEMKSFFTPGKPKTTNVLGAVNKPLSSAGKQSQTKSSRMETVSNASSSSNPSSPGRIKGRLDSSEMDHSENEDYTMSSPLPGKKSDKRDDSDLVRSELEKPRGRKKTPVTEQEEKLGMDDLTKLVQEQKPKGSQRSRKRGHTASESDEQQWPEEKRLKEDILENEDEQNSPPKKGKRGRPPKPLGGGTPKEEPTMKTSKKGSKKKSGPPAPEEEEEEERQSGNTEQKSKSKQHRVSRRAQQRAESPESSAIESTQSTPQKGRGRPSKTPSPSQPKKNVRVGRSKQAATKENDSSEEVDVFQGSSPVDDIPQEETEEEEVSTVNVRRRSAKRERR
As to the kind of experiment: pull-down; Flag-Pds5a or -b affinity-purified on anti-Flag beads from chromatin-free lysates of taxol-arrested Hek293T cells (expressed alone or with Nek2aΔMR and/or Δ86-cyclin A2); beads incubated with a mixture of recombinant Wapl (2 µl) and sororin (0.3 µg) in 15 µl cleavage buffer with kinase inhibitors, 20 min at 37 °C; bound and unbound fractions by immunoblotting. The settings on record: both partners purified.

Assay [2] has as its target T2, Flag-tagged Pds5b (wild type) from cells co-expressing Δ86-cyclin A2 (human, UniProt Q9NTI5 1-1447, phosphoserine at 1161 and 1166 (by Cdk1/2-cyclin A2)).
T2 construct: Pds5b, human; insert by PCR on human cDNA; their state in this preparation was not measured; source: Hek293T co-expressing eGFP-Δ86-cyclin A2, taxol-arrested
T2 sequence (looked up): T1 sequence (looked up)
Described as above. The settings on record: both partners purified.

B1: recombinant human Wapl (natural protein, UniProt Q7Z5K2 1-1190, looked up)
chain: MTSRFGKTYSRKGGNGSSKFDEVFSNKRTTLSTKWGETTFMAKLGQKRPNFKPDIQEIPKKPKVEEESTGDPFGFDSDDESLPVSSKNLAQVKCSSYSESSEAAQLEEVTSVLEANSKISHVVVEDTVVSDKCFPLEDTLLGKEKSTNRIVEDDASISSCNKLITSDKVENFHEEHEKNSHHIHKNADDSTKKPNAETTVASEIKETNDTWNSQFGKRPESPSEISPIKGSVRTGLFEWDNDFEDIRSEDCILSLDSDPLLEMKDDDFKNRLENLNEAIEEDIVQSVLRPTNCRTYCRANKTKSSQGASNFDKLMDGTSQALAKANSESSKDGLNQAKKGGVSCGTSFRGTVGRTRDYTVLHPSCLSVCNVTIQDTMERSMDEFTASTPADLGEAGRLRKKADIATSKTTTRFRPSNTKSKKDVKLEFFGFEDHETGGDEGGSGSSNYKIKYFGFDDLSESEDDEDDDCQVERKTSKKRTKTAPSPSLQPPPESNDNSQDSQSGTNNAENLDFTEDLPGVPESVKKPINKQGDKSKENTRKIFSGPKRSPTKAVYNARHWNHPDSEELPGPPVVKPQSVTVRLSSKEPNQKDDGVFKAPAPPSKVIKTVTIPTQPYQDIVTALKCRREDKELYTVVQHVKHFNDVVEFGENQEFTDDIEYLLSGLKSTQPLNTRCLSVISLATKCAMPSFRMHLRAHGMVAMVFKTLDDSQHHQNLSLCTAALMYILSRDRLNMDLDRASLDLMIRLLELEQDASSAKLLNEKDMNKIKEKIRRLCETVHNKHLDLENITTGHLAMETLLSLTSKRAGDWFKEELRLLGGLDHIVDKVKECVDHLSRDEDEEKLVASLWGAERCLRVLESVTVHNPENQSYLIAYKDSQLIVSSAKALQHCEELIQQYNRAEDSICLADSKPLPHQNVTNHVGKAVEDCMRAIIGVLLNLTNDNEWGSTKTGEQDGLIGTALNCVLQVPKYLPQEQRFDIRVLGLGLLINLVEYSARNRHCLVNMETSCSFDSSICSGEGDDSLRIGGQVHAVQALVQLFLERERAAQLAESKTDELIKDAPTTQHDKSGEWQETSGEIQWVSTEKTDGTEEKHKKEEEDEELDLNKALQHAGKHMEDCIVASYTALLLGCLCQESPINVTTVREYLPEGDFSIMTEMLKKFLSFMNLTCAVGTTGQKSISRVIEYLEHC
notes: Wapl, human; insert by PCR on human cDNA; Isolated from mitotically arrested cells; also called GFP-SUMOstar-Wapl; source: Hek293T, transiently transfected, taxol-arrested; not shown: GFP, N-terminal, cleaved; SUMOstar, N-terminal, cleaved
On to B1, for which the binding result in assay [1] and in assay [2] was “binds” throughout.
